test system: Escherichia coli TOP10; test: shrunken log2 fold change of peptide-encoding DNA abundance (4.5 h post-induction vs induction); higher = less antimicrobial activity (less host growth inhibition); conditions: time post-induction: 4.5 h; library: site-saturation at positions 5, 18, 19, 20
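Note: peptides expressed intracellularly from a pBAD plasmid library in pooled LB shake-flask culture, induced with 0.3% L-arabinose, DNA abundance read by NGS, three biological replicates, DESeq2 with apeglm shrinkage.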

Row | Sequence | shrunken log2 fold change
1 | RRIRTRPPRLPRPRPRPRNEPRP | -0.0624
2 | RRIRTRPPRLPRPRPRPRPHPRP | 0.296
3 | RRIRTRPPRLPRPRPRPRPQPRP | 0.146
4 | RRIRTRPPRLPRPRPRPRQEPRP | 0.0565
5 | RRIRTRPPRLPRPRPRPRQQPRP | 0.349
6 | RRIRTRPPRLPRPRPRPRRNPRP | 0.125
7 | RRIRTRPPRLPRPRPRPRRPPRP | 0.493
8 | RRIRTRPPRLPRPRPRPRRTPRP | 0.338
9 | RRIRTRPPRLPRPRPRPRRYPRP | 0.108
10 | RRIRTRPPRLPRPRPRPRSIPRP | -0.122
11 | RRIRTRPPRLPRPRPRPRTCPRP | 1.21
12 | RRIRTRPPRLPRPRPRPRTDPRP | -0.0849
13 | RRIRTRPPRLPRPRPRPRTSPRP | 0.098
14 | RRIRTRPPRLPRPRPRPRVCPRP | 0.369
15 | RRIRTRPPRLPRPRPRPRVKPRP | -0.0675
16 | RRIRTRPPRLPRPRPRPRVYPRP | -0.454
17 | RRIRTRPPRLPRPRPRPRWEPRP | 0.0443
18 | RRIRTRPPRLPRPRPRPRYKPRP | -0.909
19 | RRIRTRPPRLPRPRPRPRYMPRP | -0.62
20 | RRIRTRPPRLPRPRPRPSCMPRP | -0.0847
21 | RRIRTRPPRLPRPRPRPSDQPRP | -0.183
22 | RRIRTRPPRLPRPRPRPSFGPRP | 0.129
23 | RRIRTRPPRLPRPRPRPSFTPRP | -0.867
24 | RRIRTRPPRLPRPRPRPSFVPRP | -0.488
25 | RRIRTRPPRLPRPRPRPSGRPRP | 0.0348

Row | Sequence | shrunken log2 fold change
26 | RRIRTRPPRLPRPRPRPSIGPRP | -0.272
27 | RRIRTRPPRLPRPRPRPSINPRP | -0.63
28 | RRIRTRPPRLPRPRPRPSLGPRP | -0.229
29 | RRIRTRPPRLPRPRPRPSLLPRP | -0.0532
30 | RRIRTRPPRLPRPRPRPSLNPRP | -0.555
31 | RRIRTRPPRLPRPRPRPSNAPRP | -0.424
32 | RRIRTRPPRLPRPRPRPSPMPRP | -0.163
33 | RRIRTRPPRLPRPRPRPSQSPRP | -0.114
34 | RRIRTRPPRLPRPRPRPSRAPRP | 0.271
35 | RRIRTRPPRLPRPRPRPSTVPRP | 0.0213
36 | RRIRTRPPRLPRPRPRPSTWPRP | -0.176
37 | RRIRTRPPRLPRPRPRPSWTPRP | -0.468
38 | RRIRTRPPRLPRPRPRPSYIPRP | -0.511
39 | RRIRTRPPRLPRPRPRPTCAPRP | 0.175
40 | RRIRTRPPRLPRPRPRPTCIPRP | -0.503
41 | RRIRTRPPRLPRPRPRPTCPPRP | -0.0738
42 | RRIRTRPPRLPRPRPRPTECPRP | -0.0493
43 | RRIRTRPPRLPRPRPRPTEGPRP | 0.1
44 | RRIRTRPPRLPRPRPRPTEHPRP | -0.106
45 | RRIRTRPPRLPRPRPRPTEPPRP | 0.045
46 | RRIRTRPPRLPRPRPRPTHEPRP | 0.746
47 | RRIRTRPPRLPRPRPRPTILPRP | -0.453
48 | RRIRTRPPRLPRPRPRPTKFPRP | -0.638
49 | RRIRTRPPRLPRPRPRPTLDPRP | 0.249
50 | RRIRTRPPRLPRPRPRPTLNPRP | 0.569

Row | Sequence | shrunken log2 fold change
51 | RRIRTRPPRLPRPRPRPTNLPRP | -0.0724
52 | RRIRTRPPRLPRPRPRPTNWPRP | 0.155
53 | RRIRTRPPRLPRPRPRPTNYPRP | -0.857
54 | RRIRTRPPRLPRPRPRPTPAPRP | 0.57
55 | RRIRTRPPRLPRPRPRPTPLPRP | 0.147
56 | RRIRTRPPRLPRPRPRPTQCPRP | 0.227
57 | RRIRTRPPRLPRPRPRPTREPRP | -0.157
58 | RRIRTRPPRLPRPRPRPTSNPRP | -0.43
59 | RRIRTRPPRLPRPRPRPTTDPRP | -0.0867
60 | RRIRTRPPRLPRPRPRPTTQPRP | -0.338
61 | RRIRTRPPRLPRPRPRPTVCPRP | -0.509
62 | RRIRTRPPRLPRPRPRPTWFPRP | -0.0683
63 | RRIRTRPPRLPRPRPRPTYAPRP | -0.0854
64 | RRIRTRPPRLPRPRPRPTYQPRP | -0.206
65 | RRIRTRPPRLPRPRPRPVAHPRP | -0.0854
66 | RRIRTRPPRLPRPRPRPVCFPRP | -0.104
67 | RRIRTRPPRLPRPRPRPVDDPRP | -0.018
68 | RRIRTRPPRLPRPRPRPVDLPRP | -0.0153
69 | RRIRTRPPRLPRPRPRPVETPRP | 0.306
70 | RRIRTRPPRLPRPRPRPVFFPRP | 0.0831
71 | RRIRTRPPRLPRPRPRPVFGPRP | 0.227
72 | RRIRTRPPRLPRPRPRPVGDPRP | 0.21
73 | RRIRTRPPRLPRPRPRPVIHPRP | 0.0146
74 | RRIRTRPPRLPRPRPRPVKWPRP | -0.0599
75 | RRIRTRPPRLPRPRPRPVMAPRP | -0.0918

Row | Sequence | shrunken log2 fold change
76 | RRIRTRPPRLPRPRPRPVMVPRP | -0.0537
77 | RRIRTRPPRLPRPRPRPVNAPRP | -0.189
78 | RRIRTRPPRLPRPRPRPVNIPRP | -0.136
79 | RRIRTRPPRLPRPRPRPVPRPRP | 0.315
80 | RRIRTRPPRLPRPRPRPVRAPRP | 0.514
81 | RRIRTRPPRLPRPRPRPVRYPRP | -0.028
82 | RRIRTRPPRLPRPRPRPVSEPRP | 0.135
83 | RRIRTRPPRLPRPRPRPVTIPRP | -0.0419
84 | RRIRTRPPRLPRPRPRPVVHPRP | -0.0314
85 | RRIRTRPPRLPRPRPRPVWHPRP | 0.095
86 | RRIRTRPPRLPRPRPRPVWRPRP | 0.302
87 | RRIRTRPPRLPRPRPRPVYWPRP | -0.103
88 | RRIRTRPPRLPRPRPRPWAAPRP | -0.0363
89 | RRIRTRPPRLPRPRPRPWCTPRP | -0.275
90 | RRIRTRPPRLPRPRPRPWDEPRP | -0.167
91 | RRIRTRPPRLPRPRPRPWDMPRP | -0.33
92 | RRIRTRPPRLPRPRPRPWDWPRP | 0.00763
93 | RRIRTRPPRLPRPRPRPWFAPRP | 0.0386
94 | RRIRTRPPRLPRPRPRPWGYPRP | -0.0354
95 | RRIRTRPPRLPRPRPRPWHNPRP | -0.0242
96 | RRIRTRPPRLPRPRPRPWLGPRP | -0.00306
97 | RRIRTRPPRLPRPRPRPWMDPRP | -0.13
98 | RRIRTRPPRLPRPRPRPWMPPRP | -0.247
99 | RRIRTRPPRLPRPRPRPWMVPRP | -0.208
100 | RRIRTRPPRLPRPRPRPWNCPRP | -0.214

Row | Sequence | shrunken log2 fold change
101 | RRIRTRPPRLPRPRPRPWRMPRP | -0.139
102 | RRIRTRPPRLPRPRPRPWSKPRP | -0.0826
103 | RRIRTRPPRLPRPRPRPWTNPRP | -0.148
104 | RRIRTRPPRLPRPRPRPWVCPRP | -1.58
105 | RRIRTRPPRLPRPRPRPWVEPRP | -0.297
106 | RRIRTRPPRLPRPRPRPYAAPRP | -0.445
107 | RRIRTRPPRLPRPRPRPYAMPRP | -0.462
108 | RRIRTRPPRLPRPRPRPYENPRP | -0.0748
109 | RRIRTRPPRLPRPRPRPYFQPRP | -0.587
110 | RRIRTRPPRLPRPRPRPYFRPRP | -0.138
111 | RRIRTRPPRLPRPRPRPYHAPRP | -0.236
112 | RRIRTRPPRLPRPRPRPYHNPRP | -0.941
113 | RRIRTRPPRLPRPRPRPYIRPRP | -1.31
114 | RRIRTRPPRLPRPRPRPYIWPRP | -0.329
115 | RRIRTRPPRLPRPRPRPYKTPRP | -0.315
116 | RRIRTRPPRLPRPRPRPYLSPRP | 0.0138
117 | RRIRTRPPRLPRPRPRPYMAPRP | -1.06
118 | RRIRTRPPRLPRPRPRPYMLPRP | -1.13
119 | RRIRTRPPRLPRPRPRPYNGPRP | -0.203
120 | RRIRTRPPRLPRPRPRPYNSPRP | -0.00162
121 | RRIRTRPPRLPRPRPRPYPDPRP | -0.0217
122 | RRIRTRPPRLPRPRPRPYSDPRP | -0.148
123 | RRIRTRPPRLPRPRPRPYSMPRP | -2.42
124 | RRIRTRPPRLPRPRPRPYSNPRP | -0.941
125 | RRIRTRPPRLPRPRPRPYTWPRP | -0.465

Row | Sequence | shrunken log2 fold change
126 | RRIRTRPPRLPRPRPRPYVVPRP | -0.738
127 | RRIRTRPPRLPRPRPRPYWFPRP | -0.535
128 | RRIRTRPPRLPRPRPRPYWHPRP | -0.4
129 | RRIRTRPPRLPRPRPRPYWKPRP | -0.000823
130 | RRIRTRPPRLPRPRPRPYWNPRP | -0.343
131 | RRIRTRPPRLPRPRPRPYWVPRP | -0.0888
132 | RRIRTRPPRLPRPRPRPYYSPRP | -0.274
133 | RRIRTRPPRLPRPRPRPYYVPRP | -1.13
134 | RRIRVRPPRLPRPRPRPACPPRP | 0.311
135 | RRIRVRPPRLPRPRPRPADTPRP | -0.32
136 | RRIRVRPPRLPRPRPRPAERPRP | -0.0583
137 | RRIRVRPPRLPRPRPRPAEWPRP | 0.129
138 | RRIRVRPPRLPRPRPRPAFAPRP | 0.666
139 | RRIRVRPPRLPRPRPRPAFEPRP | 0.125
140 | RRIRVRPPRLPRPRPRPAFFPRP | 0.084
141 | RRIRVRPPRLPRPRPRPAHHPRP | -0.011
142 | RRIRVRPPRLPRPRPRPAIDPRP | 0.0602
143 | RRIRVRPPRLPRPRPRPAIHPRP | -0.23
144 | RRIRVRPPRLPRPRPRPAINPRP | -0.259
145 | RRIRVRPPRLPRPRPRPALFPRP | 0.175
146 | RRIRVRPPRLPRPRPRPALWPRP | 0.57
147 | RRIRVRPPRLPRPRPRPAQLPRP | 0.0744
148 | RRIRVRPPRLPRPRPRPAQQPRP | 0.375
149 | RRIRVRPPRLPRPRPRPARFPRP | 0.16
150 | RRIRVRPPRLPRPRPRPARKPRP | 0.342

From the supplement of paper PMC9112550, “Optimization of the antimicrobial peptide Bac7 by deep mutational scanning” (BMC Biology, 2022)
